From PMC5548924, “The N-Terminal Region of Fibrillin-1 Mediates a Bipartite Interaction with LTBP1” (Structure(London, England:1993), 2017)

What follows are binders tested against T1, FBN1^E2cbEGF1 (fibrillin-1 EGF2-EGF3-Hyb1-cbEGF1) (human, UniProt P35555 113-287, C204 replaced with a serine) (assay: SPR; Biacore T100; FBN1 fragments amine-coupled to a CM5 chip (1000 RU each flow cell), LTBP1 fragments as analytes; 50 mM Tris pH 7.5, 150 mM NaCl, 0.05% Tween 20, 2 mM CaCl2; 25°C; multi-cycle and single-cycle; Kd estimated from Scatchard plots). Details: both partners purified.
T1 construct: fibrillin-1 (FBN1), human, domains EGF2-EGF3-Hyb1-cbEGF1; His6 tag, Ser-Ala spacer and factor Xa site (Ile-Glu-Gly-Arg) at the N-terminus, tag removed with factor Xa; 15N-labelled in some NMR titrations; Construct described in Robertson et al., 2013b; also called FBN1 EGF2-EGF3-Hyb1-cbEGF1; four-domain FBN1 fragment; not shown: His6, N-terminal, cleaved
T1 sequence (P35555 other isoform, or with tags, fused parts or gaps C204 replaced with a serine | C204 replaced with a serine): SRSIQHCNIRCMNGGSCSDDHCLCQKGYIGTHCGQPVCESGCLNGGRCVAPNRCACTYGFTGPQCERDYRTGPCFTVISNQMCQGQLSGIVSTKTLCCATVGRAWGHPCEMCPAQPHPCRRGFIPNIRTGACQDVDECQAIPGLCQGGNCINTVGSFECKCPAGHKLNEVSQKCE

Row | Kd [µM] | Binder
1 | 0.5 to 1 | LTBP1^TB3E3 (LTBP1 TB3-EGF3) (domain or fragment) IRPAESNEQIEETDVYQDLCWEHLSDEYVCSRPLVGKQTTYTECCCLYGEAWGMQCALCPLKDSDDYAQLCNIPVTGRRQPYGRDALVDFSEQYTPEADPYFIQDRFLNSFEELQAEECGILNGCENGRCVRVQEGYTCDCFDGYHLDTAKMTCV
2 | ~300 | LTBP1^cbEGF14TB3 (LTBP1 cbEGF14-TB3) (domain or fragment, Ca2+-bound cbEGF14; disulfide-bonded (refolded); limits run from the start of cbEGF14 to just after the last Cys of TB3 by convention, exact construct ends not given; vector-derived N-terminal …) MDECQDPSSCIDGQCVNTEGSYNCFCTHPMVLDASEKRCIRPAESNEQIEETDVYQDLCWEHLSDEYVCSRPLVGKQTTYTECCCLYGEAWGMQCALCPLKDSDDYAQLCNIPVTGRRQPY
3 | ~100 | LTBP1^E3cbEGF15 (LTBP1 EGF3-cbEGF15) (domain or fragment) QAEECGILNGCENGRCVRVQEGYTCDCFDGYHLDTAKMTCVDVNECDELNNRMSLCKNAKCINTDGSYKCLCLPGYVPSDKPNYCT
